Experimental findings from patent publication US6242195 are described below.

Test [1] concerns the target C1q (human) (UniProt P02745).
Test [2] has as its target CD20 antigen (Homo sapiens (Human)) (UniProt P11836).
Test [3] concerns the target C1q (human) (UniProt P02745). Put plainly: C1q binding ELISA, antibody coated.
For test [4], the target named is CD20 antigen (Homo sapiens (Human)) (UniProt P11836). Put plainly: flow cytometry on WIL2-S cells, EC50 against C2B8 reference.
For test [5], the target named is C1q (human) (UniProt P02745). Kind of test: C1q binding ELISA, antibody coated, up to 100 µg/ml.
Test [6] addresses FcγRI α subunit-GST fusion (Homo sapiens (Human)) (UniProt P12314). Put plainly: ELISA, monomeric IgG on coated FcγRI α subunit-GST.
Test [7] has as its target FcγRIIIa α subunit ECD-6-His-GST fusion protein (Homo sapiens (Human)) (UniProt P08637). Kind of test: ELISA, E27:chimeric IgE:VEGF complex on coated receptor.
The target in test [8] is FcγRIIa α subunit ECD-6-His-GST fusion protein (Homo sapiens (Human)) (UniProt P12318). The test is described as above.
The target of test [9] is FcγRIIb α subunit ECD-6-His-GST fusion protein (Homo sapiens (Human)) (UniProt P31994). The description is as above.

Chain of FcγRIIIa α subunit ECD-6-His-GST fusion protein (Homo sapiens (Human)) (P08637 17-208): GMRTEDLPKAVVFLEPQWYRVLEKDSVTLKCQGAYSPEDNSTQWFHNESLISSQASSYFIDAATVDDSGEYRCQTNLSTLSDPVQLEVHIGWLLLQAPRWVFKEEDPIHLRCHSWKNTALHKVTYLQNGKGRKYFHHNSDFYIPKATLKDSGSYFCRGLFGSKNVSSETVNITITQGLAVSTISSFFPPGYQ
Chain of FcγRI α subunit-GST fusion (Homo sapiens (Human)) (P12314 16-292): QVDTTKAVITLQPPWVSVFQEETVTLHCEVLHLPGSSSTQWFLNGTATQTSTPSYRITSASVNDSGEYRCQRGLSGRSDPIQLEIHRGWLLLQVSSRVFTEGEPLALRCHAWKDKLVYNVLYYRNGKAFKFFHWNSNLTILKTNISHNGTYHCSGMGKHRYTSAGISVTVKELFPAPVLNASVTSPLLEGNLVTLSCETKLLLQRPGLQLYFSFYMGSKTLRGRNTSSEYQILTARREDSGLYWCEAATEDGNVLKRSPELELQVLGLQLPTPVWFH

Regarding C2B8 mutant E318A (antibody), the CDC, percentage of the wild type (% of wild type) in test [1] and in test [2] was 108 each time. Besides, the decrease in binding to C1q against wild type C2B8 in test [3] worked out at 30%. The CD20 binding, percentage of the wild type (% of wild type) in test [4] turned out to be 89.
In the case of C2B8 mutant K320A (antibody), the CDC, percentage of the wild type (% of wild type) in test [1] and in test [2] was 108 in each case. This substance also had a CD20 binding, percentage of the wild type (% of wild type) in test [4] of 102.
In test [4], C2B8 mutant P329A (antibody) came in with a CD20 binding, percentage of the wild type (% of wild type) of 112.
For C2B8 mutant P331A (antibody), in test [5], the fold lower binding to C1q than wild type C2B8 was found to be 60 fold lower. The same substance had a CD20 binding, percentage of the wild type (% of wild type) in test [4] of 103.
In the case of E27 anti-IgE antibody, Fc mutant E318A, the binding, percentage of the wild type (% of wild type) in test [6] stood at 93; in test [7], 104; in [8], 113; in test [9] it was 106.
Consider E27 anti-IgE antibody, Fc mutant K320A, for which the results for the binding, percentage of the wild type (% of wild type) in [6], in test [7] and in test [9] were 102, 72 and 83, respectively.
In the case of E27 anti-IgE antibody, Fc mutant K322A, the binding, percentage of the wild type (% of wild type) in [8] stood at 109; in test [9], 101.
For the substance E27 anti-IgE antibody, Fc mutant P329A, the binding, percentage of the wild type (% of wild type) came to 104 in test [6] and 85 in [7].
Consider E27 anti-IgE antibody, Fc mutant P331A, for which the binding, percentage of the wild type (% of wild type) was found to be 74 in test [6], 73 in test [7], 86 in test [8] and 58 in test [9].
